# Patent US20220412960A1
# Target: PAR-1 receptor on human platelets (human) (UniProt P25116)
# Assay: cell-based or functional assay
# Chain of PAR-1 receptor on human platelets (human) (P25116 42-425): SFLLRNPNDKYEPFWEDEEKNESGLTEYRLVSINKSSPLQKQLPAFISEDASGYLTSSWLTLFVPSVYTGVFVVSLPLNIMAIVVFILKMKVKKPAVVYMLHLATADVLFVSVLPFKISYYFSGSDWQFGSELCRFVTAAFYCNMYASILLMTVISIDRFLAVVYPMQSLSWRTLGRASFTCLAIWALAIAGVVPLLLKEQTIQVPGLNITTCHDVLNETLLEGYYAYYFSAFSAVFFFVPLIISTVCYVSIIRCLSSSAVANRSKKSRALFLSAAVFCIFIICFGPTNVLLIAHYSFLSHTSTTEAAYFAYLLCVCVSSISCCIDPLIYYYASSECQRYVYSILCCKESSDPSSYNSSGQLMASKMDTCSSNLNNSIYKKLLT
substance,measurement,value
thrombin receptor agonist peptide TRAP-6,"platelet aggregation, light transmission aggregometry, washed platelets of sepsis patients at ICU admission, 10 µM TRAP-6",> 21.2%
same,"platelet aggregation, light transmission aggregometry, washed platelets of sepsis patients at ICU admission, 10 µM TRAP-6 (mean)",34.2%
